Results published in IntAct's records for PubMed 16582879.

B1: Tyrosine-protein phosphatase non-receptor type 1 (Homo sapiens), P18031 (parent)
chain: MEMEKEFEQIDKSGSWAAIYQDIRHEASDFPCRVAKLPKNKNRNRYRDVSPFDHSRIKLHQEDNDYINASLIKMEEAQRSYILTQGPLPNTCGHFWEMVWEQKSRGVVMLNRVMEKGSLKCAQYWPQKEEKEMIFEDTNLKLTLISEDIKSYYTVRQLELENLTTQETREILHFHYTTWPDFGVPESPASFLNFLFKVRESGSLSPEHGPVVVHCSAGIGRSGTFCLADTCLLLMDKRKDPSSVDIKKVLLEMRKFRMGLIQTADQLRFSYLAVIEGAKFIMGDSSVQDQWKELSHEDLEPPPEHIPPPPRPPKRILEPHNGKCREFFPNHQWVKEETQEDKDCPIKEEKGSPLNAAPYGIESMSQDTEVRSRVVGGSLRGAQAASPAKGEPSLPEKDEDHALSYWKPFLVNMCVATVLTAGAYLCYRFLFNSNT

Variants of: B1
Details: with insr_human INSR

Row | effect of a mutation on the interaction | Variant
1 | increasing interaction | D181A
